# Earlier results as cited in patent US10190113B2, “Methods and compositions for segregating target nucleic acid from mixed nucleic acid samples” (FLIR DETECTION, INC., priority 2011, dated 2019).
# Changes are numbered by the printed parent chain. Names may count otherwise. “And” between values parts separate entries of the source, which are not always exact repeats. Equal entries are not always repeated.
# B1: EcoRV Y72N: EcoRV restriction enzyme with mutation Y72N (protein, UniProt P04390 2-245, looked up, variant Y72N)
# Type II restriction enzyme …: SLRSDLINALYDENQKYDVCGIISAEGKIYPLGSDTKVLSTIFELFSRPIINKIAEKHGYIVEEPKQQNHNPDFTLYKPSEPNKKIAIDIKTTYTNKENEKIKFTLGGYTSFIRNNTKNIVYPFDQYIAHWIIGYVYTRVATRKSSLKTYNINELNEIPKPYKGVKVFLQDKWVIAGDLAGSGNTTNIGSIHAHYKDFVEGKGIFDSEDEFLDYWRNYERTSQLRNDKYNNISEYRNWIYRGRK
# B2: EcoRV P73A: EcoRV restriction enzyme with mutation P73A (two citations) (protein, UniProt P04390 2-245, looked up, variant P73A)
# Type II restriction enzyme …: B1 Type II restriction enzyme … with N71Y, P72A
# B3: EcoRV P73T: EcoRV restriction enzyme with mutation P73T (protein, UniProt P04390 2-245, looked up, variant P73T)
# Type II restriction enzyme …: B1 Type II restriction enzyme … with N71Y, P72T
# B4: EcoRV D90N: EcoRV restriction enzyme with mutation D90N (two citations) (protein, UniProt P04390 2-245, looked up, variant D90N)
# Type II restriction enzyme …: B1 Type II restriction enzyme … with N71Y, D89N
# B5: EcoRV I91L: EcoRV restriction enzyme with mutation I91L (protein, UniProt P04390 2-245, looked up, variant I91L)
# Type II restriction enzyme …: B1 Type II restriction enzyme … with N71Y, I90L
# B6: EcoRV K92R: EcoRV restriction enzyme with mutation K92R (protein, UniProt P04390 2-245, looked up, variant K92R)
# Type II restriction enzyme …: B1 Type II restriction enzyme … with N71Y, K91R
# B7: EcoRV E45A: EcoRV restriction enzyme with mutation E45A (protein, UniProt P04390 2-245, looked up, variant E45A)
# Type II restriction enzyme …: B1 Type II restriction enzyme … with E44A, N71Y
# B8: EcoRV E45D: EcoRV restriction enzyme with mutation E45D (protein, UniProt P04390 2-245, looked up, variant E45D)
# Type II restriction enzyme …: B1 Type II restriction enzyme … with E44D, N71Y
# B9: BamHI T153I: BamHI restriction enzyme with mutation T153I (listed twice) (protein, UniProt P23940 1-213, looked up, variant T153I)
# Type II restriction enzyme …: MEVEKEFITDEAKELLSKDKLIQQAYNEVKTSICSPIWPATSKTFTINNTEKNCNGVVPIKELCYTLLEDTYNWYREKPLDILKLEKKKGGPIDVYKEFIENSELKRVGMEFETGNISSAHRSMNKLLLGLKHGEIDLAIILMPIKQLAYYLIDRVTNFEELEPYFELTEGQPFIFIGFNAEAYNSNVPLIPKGSDGMSKRSIKKWKDKVENK
# B10: EcoRV E45Q: EcoRV restriction enzyme with mutation E45Q (protein, UniProt P04390 2-245, looked up, variant E45Q)
# Type II restriction enzyme …: B1 Type II restriction enzyme … with E44Q, N71Y
# B11: EcoRV D74A: EcoRV restriction enzyme with mutation D74A (protein, UniProt P04390 2-245, looked up, variant D74A)
# Type II restriction enzyme …: B1 Type II restriction enzyme … with N71Y, D73A
# B12: EcoRV D74E: EcoRV restriction enzyme with mutation D74E (protein, UniProt P04390 2-245, looked up, variant D74E)
# Type II restriction enzyme …: B1 Type II restriction enzyme … with N71Y, D73E
# B13: EcoRV D74N: EcoRV restriction enzyme with mutation D74N (protein, UniProt P04390 2-245, looked up, variant D74N)
# Type II restriction enzyme …: B1 Type II restriction enzyme … with N71Y, D73N
# B14: EcoRV D90A: EcoRV restriction enzyme with mutation D90A (protein, UniProt P04390 2-245, looked up, variant D90A)
# Type II restriction enzyme …: B1 Type II restriction enzyme … with N71Y, D89A
# B15: BamHI T114I: BamHI restriction enzyme with mutation T114I (protein, UniProt P23940 1-213, looked up, variant T114I)
# Type II restriction enzyme …: B9 Type II restriction enzyme … with T114I, I153T
# B16: EcoRV D90T: EcoRV restriction enzyme with mutation D90T (protein, UniProt P04390 2-245, looked up, variant D90T)
# Type II restriction enzyme …: B1 Type II restriction enzyme … with N71Y, D89T
# B17: EcoRV K92A: EcoRV restriction enzyme with mutation K92A (protein, UniProt P04390 2-245, looked up, variant K92A)
# Type II restriction enzyme …: B1 Type II restriction enzyme … with N71Y, K91A
# B18: EcoRV K92E: EcoRV restriction enzyme with mutation K92E (protein, UniProt P04390 2-245, looked up, variant K92E)
# Type II restriction enzyme …: B1 Type II restriction enzyme … with N71Y, K91E
# B19: EcoRV K92Q: EcoRV restriction enzyme with mutation K92Q (protein, UniProt P04390 2-245, looked up, variant K92Q)
# Type II restriction enzyme …: B1 Type II restriction enzyme … with N71Y, K91Q
# B20: BamHI G130R: BamHI restriction enzyme with mutation G130R (protein, UniProt P23940 1-213, looked up, variant G130R)
# Type II restriction enzyme …: B9 Type II restriction enzyme … with G130R, I153T
# B21: BamHI E135K: BamHI restriction enzyme with mutation E135K (protein, UniProt P23940 1-213, looked up, variant E135K)
# Type II restriction enzyme …: B9 Type II restriction enzyme … with E135K, I153T
# B22: BamHI T157I: BamHI restriction enzyme with mutation T157I (protein, UniProt P23940 1-213, looked up, variant T157I)
# Type II restriction enzyme …: B9 Type II restriction enzyme … with I153T, T157I
# B23: BamHI G194D: BamHI restriction enzyme with mutation G194D (protein, UniProt P23940 1-213, looked up, variant G194D)
# Type II restriction enzyme …: B9 Type II restriction enzyme … with I153T, G194D
# B24: BamHI D94N: BamHI restriction enzyme with mutation D94N (protein, UniProt P23940 1-213, looked up, variant D94N)
# Type II restriction enzyme …: B9 Type II restriction enzyme … with D94N, I153T
# B25: BsoBI I95M: BsoBI restriction enzyme with mutation I95M (protein, UniProt P70985 2-323, looked up, variant I95M)
# Type II restriction enzyme …: NTQKPFENHLKSVDDLKTTYEEYRAGFIAFALEKNKRSTPYIERARALKVAASVAKTPKDLLYLEDIQDALLYASGISDKAKKFLTEDDKKESMNNLIENFLEPAGEEFIDELIFRYLLFQGDSLGGTMRNIAGALAQQKLTRAIISALDIANIPYKWLDSRDKKYTNWMDKPEDDYELETFAKGISWTINGKHRTLMYNITVPLVKKNVDICLFNCEPEIYTPQKVHQQPEKYLLLGELKGGIDPAGADEHWKTANTALTRIRNKFSEKGLSPKTIFIGAAIEHSMAEEIWDQLQSGSLTNSANLTKTEQVGSLCRWIINI
# B26: BsoBI D124Y: BsoBI restriction enzyme with mutation D124Y (protein, UniProt P70985 2-323, looked up, variant D124Y)
# Type II restriction enzyme …: B25 Type II restriction enzyme … with M94I, D123Y
# B27: BsoBI G123R: BsoBI restriction enzyme with mutation G123R (protein, UniProt P70985 2-323, looked up, variant G123R)
# Type II restriction enzyme …: B25 Type II restriction enzyme … with M94I, G122R
# B28: BsoBI D212N: BsoBI restriction enzyme with mutation D212N (protein, UniProt P70985 2-323, looked up, variant D212N)
# Type II restriction enzyme …: B25 Type II restriction enzyme … with M94I, D211N
# B29: BsoBI K209R: BsoBI restriction enzyme with mutation K209R (protein, UniProt P70985 2-323, looked up, variant K209R)
# Type II restriction enzyme …: B25 Type II restriction enzyme … with M94I, K208R
# B30: BamHI G56S: BamHI restriction enzyme with mutation G56S (protein, UniProt P23940 1-213, looked up, variant G56S)
# Type II restriction enzyme …: B9 Type II restriction enzyme … with G56S, I153T
# System: nucleic acid recognition or cleavage site
# Details: mutant restriction enzyme relative to wild type; cited from earlier work
row,Molecule,% of WT cleavage activity
1,B1,<0.1%
2,B2,<0.1% and 1%
3,B3,0%
4,B4,0%
5,B5,<0.1%
6,B6,0%
7,B7,<0.1%
8,B8,<0.3%
9,B9,0.1% and 1%
10,B10,<0.3%
11,B11,0%
12,B12,0%
13,B13,1.5%
14,B14,0%
15,B15,1%
16,B16,0%
17,B17,<0.1%
18,B18,<0.1%
19,B19,0%
20,B20,0.1%
21,B21,1%
22,B22,1%
23,B23,1%
24,B24,<0.1%
25,B25,<0.1%
26,B26,<0.1%
27,B27,<0.1%
28,B28,<0.1%
29,B29,<0.1%
30,B30,1%
